Experimental findings from publication PMC11512059 (Nature Communications, 2024) are described below.

The series deals with the molecule itself. Put plainly: cryo-EM structure.

B1: human connexin 36 Ala14 deletion variant gap junction channel in lipid nanodiscs containing brain lipids (Cx36_(Nano-BL)-∆A14) (natural protein, UniProt Q9UKL4 1-321, looked up)
chain: MGEWTILERLLEAVQQHSTMIGRILLTVVVIFRILIVAIVGETVYDDEQTMFVCNTLQPGCNQACYDRAFPISHIRYWVFQIIMVCTPSLCFITYSVHQSAKQRERRYSTVFLALDRDPPESIGGPGGTGGGGSGGGKREDKKLQNAIVNGVLQNTENTSKETEPDCLEVKELTPHPSGLRTASKSKLRRQEGISRFYIIQVVFRNALEIGFLVGQYFLYGFSVPGLYECNRYPCIKEVECYVSRPTEKTVFLVFMFAVSGICVVLNLAELNHLGWRKIKLAVRGAQAKRKSIYEIRNKDLPRVSVPNFGRTQSSDSAYV
In the case of B1, the binding result is listed as “binds”.

B2: human connexin 36 gap junction channel, wild type, in lipid nanodiscs containing brain lipids (Cx36_(Nano-BL)-WT) (natural protein, UniProt Q9UKL4 1-321, looked up)
chain: MGEWTILERLLEAAVQQHSTMIGRILLTVVVIFRILIVAIVGETVYDDEQTMFVCNTLQPGCNQACYDRAFPISHIRYWVFQIIMVCTPSLCFITYSVHQSAKQRERRYSTVFLALDRDPPESIGGPGGTGGGGSGGGKREDKKLQNAIVNGVLQNTENTSKETEPDCLEVKELTPHPSGLRTASKSKLRRQEGISRFYIIQVVFRNALEIGFLVGQYFLYGFSVPGLYECNRYPCIKEVECYVSRPTEKTVFLVFMFAVSGICVVLNLAELNHLGWRKIKLAVRGAQAKRKSIYEIRNKDLPRVSVPNFGRTQSSDSAYV
As to B2, the binding result is given as “binds”.
